From patent EP4813394A2 (Albert-Ludwigs-Universität Freiburg, dated 2026)

Biological target: T1, TRMT112 (KMT9beta) (Homo sapiens, UniProt Q9UI30 1-125)
T1 construct: TRMT112 is untagged when co-expressed with His-C21orf127 and His-tagged when expressed alone (His-TRMT112); also called His-TRMT112
T1 sequence: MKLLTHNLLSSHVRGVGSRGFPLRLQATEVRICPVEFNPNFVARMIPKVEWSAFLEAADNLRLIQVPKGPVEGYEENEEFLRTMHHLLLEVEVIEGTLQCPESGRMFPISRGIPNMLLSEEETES
Experiment: gel filtration chromatography (Superose 6 10/300 GL)

- binding result: binds
B1: C21orf127(N122A) (enzyme)
chain: MAGENFATPFHGHVGRGAFSDVYEPAEDTFLLLDALEAAAAELAGVEICLEVGSGSGVVSAFLASMIGPQALYMCTDINPEAAACTLETARCNKVHIQPVITDLVKGLLPRLTEKVDLLVFAPPYVVTPPQEVGSHGIEAAWAGGRNGREVMDRFFPLVPDLLSPRGLFYLVTIKENNPEEILKIMKTKGLQGTTALSRQAGQETLSVLKFTKS
notes: Co-expressed with TRMT112 as His-C21orf127(N122A)/TRMT112; also called KMT9alpha(N122A); His-C21orf127(N122A); not shown: N-terminal His tag from pDEST17 or pET-Duet1
